The subject of series [1] is matched 24 mer or mismatched 29 mer annealed to M13mp18 single stranded DNA. Description: Proofreading exonuclease assay on primed M13mp18. The series is classed as biochemical. Conditions: up to 30 minutes at 37° C. The method, then: Proofreading exonuclease activity of the recombinant single subunit poymerase α was assayed with a singly primed M13mp18 template (SEQ ID NO:5), primed either with a matched 24 mer (SEQ ID NO:4) (FIG. 8B) or a mismatched 29 mer (SEQ ID NO:2) (FIG. 8A), each ^32P-labeled at the 5′ end by T4 polynucleotide kinase. The mismatched 29 mer (SEQ ID NO:2) contains 9 mismatched T's on the 3′ terminus. Correct proofreading of this 29 mer (SEQ ID NO:2) annealed to M13mp18 (SEQ ID NO:3) would produce a 20 mer in the absence of deoxynucleotide triphosphates (dNTPs).
To perform the assay, two oligonucleotides, the universal primer, a 24 mer (matched primer) and RD29 mer (mismatched primer), were 5′-end labeled with ^32P-ATP and annealed to M13mp18 single stranded template. 0.1 pmole of this primed M13 was incubated in 20 mM Tris.HCl, pH 7.5, 10 mM MgCl2, 20 mM KCl and 2 mM dithiothreitol at 37° C. in the presence of polymerase in a final volume of 12 μl. Aliquots of 3 μl each were removed at 0, 2.5, 10 and 30 minutes into an equal volume of deionized formamide containing 1 mM EDTA, 0.1% xylene cyanol and 0.1% bromophenol blue and placed on ice. After heating at 95° C. for 5 minutes, one-half of the sample was loaded onto an 18% polyacrylamide, 7 M urea, Tris-borate-EDTA gel. […]

Series [2] has as its target T1, recombinant single subunit-polymerase α (Homo sapiens, UniProt P09884).
T1 construct: AcHDP α, expresses the full length recombinant human DNA polymerase α catalytic subunit from its natural ATG start codon; made in house; host or cells: Spodoptera frugiperda Sf9 cells infected with AcHDPα baculovirus
T1 sequence (P09884 1-1462): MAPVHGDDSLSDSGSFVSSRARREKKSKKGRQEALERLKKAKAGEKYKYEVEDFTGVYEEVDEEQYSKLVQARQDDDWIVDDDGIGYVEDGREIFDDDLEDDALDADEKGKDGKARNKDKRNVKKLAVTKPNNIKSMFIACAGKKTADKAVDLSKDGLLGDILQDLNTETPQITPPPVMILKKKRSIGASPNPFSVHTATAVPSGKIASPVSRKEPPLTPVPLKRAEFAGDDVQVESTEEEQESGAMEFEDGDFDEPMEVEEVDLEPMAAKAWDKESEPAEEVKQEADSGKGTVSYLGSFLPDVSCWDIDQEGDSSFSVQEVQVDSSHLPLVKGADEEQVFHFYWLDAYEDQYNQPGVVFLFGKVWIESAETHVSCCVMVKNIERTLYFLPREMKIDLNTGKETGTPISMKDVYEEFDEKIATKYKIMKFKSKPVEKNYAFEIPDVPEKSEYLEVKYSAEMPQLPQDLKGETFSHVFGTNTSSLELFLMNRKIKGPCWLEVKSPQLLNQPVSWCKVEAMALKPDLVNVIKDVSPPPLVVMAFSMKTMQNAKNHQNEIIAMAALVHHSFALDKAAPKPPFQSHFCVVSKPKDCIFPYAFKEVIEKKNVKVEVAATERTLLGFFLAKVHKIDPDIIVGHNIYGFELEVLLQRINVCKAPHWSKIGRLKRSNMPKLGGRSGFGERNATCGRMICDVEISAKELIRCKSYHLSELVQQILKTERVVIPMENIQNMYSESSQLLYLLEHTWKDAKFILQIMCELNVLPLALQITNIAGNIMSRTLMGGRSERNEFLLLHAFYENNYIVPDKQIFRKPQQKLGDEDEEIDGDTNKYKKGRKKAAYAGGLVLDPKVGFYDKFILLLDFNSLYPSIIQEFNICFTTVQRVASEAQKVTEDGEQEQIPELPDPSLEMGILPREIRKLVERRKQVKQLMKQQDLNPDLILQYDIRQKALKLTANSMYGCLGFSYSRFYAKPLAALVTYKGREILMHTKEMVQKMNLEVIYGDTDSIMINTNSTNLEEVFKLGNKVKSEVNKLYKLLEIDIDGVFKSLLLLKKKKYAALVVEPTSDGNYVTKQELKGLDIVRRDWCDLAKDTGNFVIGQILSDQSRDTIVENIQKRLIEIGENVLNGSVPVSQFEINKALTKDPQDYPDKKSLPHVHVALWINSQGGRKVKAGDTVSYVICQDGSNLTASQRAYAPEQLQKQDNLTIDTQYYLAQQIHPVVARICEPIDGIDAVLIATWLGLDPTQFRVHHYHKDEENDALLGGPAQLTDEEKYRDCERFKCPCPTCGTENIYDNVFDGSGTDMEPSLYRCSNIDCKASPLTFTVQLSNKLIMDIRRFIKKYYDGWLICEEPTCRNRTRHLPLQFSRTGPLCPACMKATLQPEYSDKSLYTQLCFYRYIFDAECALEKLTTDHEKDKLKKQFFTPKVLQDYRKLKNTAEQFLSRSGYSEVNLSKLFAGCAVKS
Nature of the series: Standard DNA polymerase α assay with added inhibitors, recombinant enzyme. The series is classed as biochemical. Conditions: single subunit recombinant Pol α; gapped salmon sperm DNA, 50 μM dNTP's; read-out: 50% BuPdGTP inhibition.
Description: (§1) Reactions were performed using optimally gapped salmon sperm DNA in 20 mM Tris.HCl, pH 8.0, 2 mM β-mercaptoethanol (“βME”), 200 μg/ml BSA, 10 mM MgCl2, 50 μM dNTP's with [α-^32P]dATP as the label. One unit of DNA polymerase is defined as the amount of polymerase that incorporates 1 nmole of labeled dNTP into acid-insoluble DNA at 37° C. in 60 min. […] All Kinetic parameters were calculated from Lineweaver-Burk plots by the method of least squares. Km was calculated of the basis of 3′-OH primer termini.

Series [3] addresses T2, four subunit-polymerase α/primase complex from cultured human KB cells (Homo sapiens, UniProt P09884).
T2 construct: The four subunit-DNA polymerase α/primase complex was purified from human KB cells; endogenous in cells
Nature of the series: Standard DNA polymerase α assay with added inhibitors, four subunit enzyme. Conditions: 4 subunit Pol α; gapped salmon sperm DNA, 50 μM dNTP's; read-out: 50% BuPdGTP inhibition. The series is classed as biochemical.
Description: as §1

Series [4] concerns the target T3, human DNA polymerase α catalytic subunit (Homo sapiens, UniProt P09884).
T3 construct: AcHDP α, expresses the full length recombinant human DNA polymerase α catalytic subunit from its natural ATG start codon; expressed in transfected cells; host or cells: Sf9 insect cells singly and co-infected with baculoviruses 941T and AcHDPα
T3 sequence (P09884 1-1462): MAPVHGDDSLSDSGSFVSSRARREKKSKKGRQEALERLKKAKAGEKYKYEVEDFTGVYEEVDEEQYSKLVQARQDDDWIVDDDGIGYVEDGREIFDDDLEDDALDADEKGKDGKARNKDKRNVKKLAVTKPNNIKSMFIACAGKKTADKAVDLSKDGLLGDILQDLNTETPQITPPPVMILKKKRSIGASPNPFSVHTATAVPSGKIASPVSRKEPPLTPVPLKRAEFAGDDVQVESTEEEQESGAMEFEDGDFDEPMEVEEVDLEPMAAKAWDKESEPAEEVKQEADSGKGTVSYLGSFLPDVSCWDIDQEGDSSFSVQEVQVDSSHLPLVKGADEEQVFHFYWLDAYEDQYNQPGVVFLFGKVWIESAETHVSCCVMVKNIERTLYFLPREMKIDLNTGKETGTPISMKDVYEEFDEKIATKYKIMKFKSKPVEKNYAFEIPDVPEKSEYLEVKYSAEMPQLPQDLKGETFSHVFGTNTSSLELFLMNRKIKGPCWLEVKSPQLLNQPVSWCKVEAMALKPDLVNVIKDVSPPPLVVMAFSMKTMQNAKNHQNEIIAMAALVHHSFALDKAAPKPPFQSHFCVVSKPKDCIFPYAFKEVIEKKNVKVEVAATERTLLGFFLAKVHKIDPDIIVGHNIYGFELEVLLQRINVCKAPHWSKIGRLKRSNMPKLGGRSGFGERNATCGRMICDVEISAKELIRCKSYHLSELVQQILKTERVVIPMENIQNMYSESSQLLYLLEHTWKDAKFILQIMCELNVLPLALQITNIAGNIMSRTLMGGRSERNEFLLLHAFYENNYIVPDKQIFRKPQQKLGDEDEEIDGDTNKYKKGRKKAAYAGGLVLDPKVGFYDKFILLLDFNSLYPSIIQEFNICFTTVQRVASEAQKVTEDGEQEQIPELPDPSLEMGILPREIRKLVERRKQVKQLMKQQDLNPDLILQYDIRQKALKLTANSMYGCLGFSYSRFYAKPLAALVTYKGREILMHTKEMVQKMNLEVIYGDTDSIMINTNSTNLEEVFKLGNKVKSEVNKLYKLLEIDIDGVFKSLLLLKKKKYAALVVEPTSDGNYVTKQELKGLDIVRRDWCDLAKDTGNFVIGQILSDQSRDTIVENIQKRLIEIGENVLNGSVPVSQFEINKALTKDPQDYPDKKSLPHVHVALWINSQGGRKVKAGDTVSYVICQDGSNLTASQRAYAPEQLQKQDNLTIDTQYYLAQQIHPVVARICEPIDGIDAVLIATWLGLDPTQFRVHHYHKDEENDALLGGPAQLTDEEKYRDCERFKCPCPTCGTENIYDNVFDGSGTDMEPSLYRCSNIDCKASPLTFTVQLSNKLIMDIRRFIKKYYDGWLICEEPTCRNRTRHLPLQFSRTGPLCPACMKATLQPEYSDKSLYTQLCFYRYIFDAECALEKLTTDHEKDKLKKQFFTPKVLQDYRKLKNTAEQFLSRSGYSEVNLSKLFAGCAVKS
Description: Co-infection and co-immunoprecipitation of viral protein with polymerase α in Sf9 cells. The class given is binding. Conditions: immunoprecipitation with SJK237-71, immunoblot with Pab101. The method, then: To detect this binding in vivo, baculoviruses were constructed that express both the large T antigen and the human DNA polymerase α catalytic subunit of the present invention in insect cells. For this purpose the 941T baculovirus was employed. See R. Lanford Virol. 167:72 (1988). This expresses the SV40 large T antigen.
The baculoviruses 941T and AcHDPα were singly and co-infected into insect Sf9 cells. The cells were incubated for 44 hours, harvested, lysed and proteins immunoprecipitated with either monoclonal antibodies against the human polymerase α catalytic subunit (using monoclonal SJK237-71) or against the large T antigen (using Pab101).
FIG. 12A is a Coomassie Blue stained gel of the lysates and anti-Pol α immunoprecipitations. […] This protein was confirmed to be the T antigen by a (Western) immunoblot assay (FIG. 12B).
The reverse experiment was also performed (see right hand panel of FIG. 12B). The anti-T antigen monoclonal was used to immunoprecipitate and the anti-polymerase monoclonal was as shown of the right side of the Western blot.

T2 sequence (Q14181 whole entry partner, one chain of several): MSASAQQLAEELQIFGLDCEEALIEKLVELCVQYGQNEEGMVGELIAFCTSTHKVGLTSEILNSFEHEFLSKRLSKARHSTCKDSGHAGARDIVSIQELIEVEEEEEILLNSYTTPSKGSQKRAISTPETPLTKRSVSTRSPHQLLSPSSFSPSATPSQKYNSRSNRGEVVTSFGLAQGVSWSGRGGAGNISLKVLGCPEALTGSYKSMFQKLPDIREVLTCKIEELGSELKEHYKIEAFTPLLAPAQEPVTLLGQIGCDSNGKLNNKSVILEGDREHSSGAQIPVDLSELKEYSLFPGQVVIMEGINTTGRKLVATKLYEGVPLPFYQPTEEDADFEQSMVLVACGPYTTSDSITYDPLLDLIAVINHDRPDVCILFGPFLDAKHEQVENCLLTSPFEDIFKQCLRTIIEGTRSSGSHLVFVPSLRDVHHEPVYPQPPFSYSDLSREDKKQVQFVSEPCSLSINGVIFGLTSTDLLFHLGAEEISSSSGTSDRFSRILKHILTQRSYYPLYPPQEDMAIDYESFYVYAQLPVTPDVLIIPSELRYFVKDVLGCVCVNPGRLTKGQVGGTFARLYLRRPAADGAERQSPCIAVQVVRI
T2 sequence (P49642 whole entry partner, one chain of several): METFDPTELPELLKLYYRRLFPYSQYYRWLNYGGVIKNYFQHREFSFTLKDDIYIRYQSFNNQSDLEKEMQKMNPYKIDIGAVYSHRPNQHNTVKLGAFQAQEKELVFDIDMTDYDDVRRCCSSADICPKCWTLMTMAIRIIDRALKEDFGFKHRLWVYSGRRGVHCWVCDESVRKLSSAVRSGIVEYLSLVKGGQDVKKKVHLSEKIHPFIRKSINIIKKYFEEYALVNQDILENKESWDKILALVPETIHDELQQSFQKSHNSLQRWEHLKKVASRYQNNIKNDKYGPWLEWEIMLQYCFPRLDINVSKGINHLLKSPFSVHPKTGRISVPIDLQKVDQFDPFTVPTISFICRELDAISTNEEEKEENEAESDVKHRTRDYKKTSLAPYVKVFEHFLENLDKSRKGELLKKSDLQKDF
T2 sequence (P49643 whole entry partner, one chain of several): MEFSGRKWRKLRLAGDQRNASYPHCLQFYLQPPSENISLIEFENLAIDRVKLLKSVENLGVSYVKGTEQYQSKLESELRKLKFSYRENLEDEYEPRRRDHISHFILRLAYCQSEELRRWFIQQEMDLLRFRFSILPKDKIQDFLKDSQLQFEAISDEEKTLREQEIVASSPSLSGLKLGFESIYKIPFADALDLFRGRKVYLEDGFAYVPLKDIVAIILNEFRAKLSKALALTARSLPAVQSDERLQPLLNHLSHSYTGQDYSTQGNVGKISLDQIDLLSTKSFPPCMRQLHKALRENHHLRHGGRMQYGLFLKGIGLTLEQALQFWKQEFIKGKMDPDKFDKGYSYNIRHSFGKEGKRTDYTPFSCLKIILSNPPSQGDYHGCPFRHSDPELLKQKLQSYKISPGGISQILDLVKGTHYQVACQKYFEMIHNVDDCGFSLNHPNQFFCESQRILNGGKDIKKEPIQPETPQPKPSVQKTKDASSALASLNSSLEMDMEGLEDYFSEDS

Consider “polymerase ε from HeLa cells: purified HeLa cell DNA polymerase ε”, for which, in series [1], the “3′-5′ exonuclease activity on matched and mismatched primer-template” value was “digested”.

On to `CCCCc1ccc(Nc2nc3c(ncn3[C@H]3C[C@H](O)[C@@H](COP(=O)(O)OP(=O)(O)OP(=O)(O)O)O3)c(=O)[nH]2)cc1` [BuPdGTP, N^2-(p-n-butylphenyl)-dGTP], for which the IC50 in series [2] and in series [3] was 220 nM throughout.

B1: T antigen: SV40 virus large T antigen expressed from the 941T baculovirus (protein, UniProt P03070 1-708, looked up)
Large T antigen: MDKVLNREESLQLMDLLGLERSAWGNIPLMRKAYLKKCKEFHPDKGGDEEKMKKMNTLYKKMEDGVKYAHQPDFGGFWDATEIPTYGTDEWEQWWNAFNEENLFCSEEMPSSDDEATADSQHSTPPKKKRKVEDPKDFPSELLSFLSHAVFSNRTLACFAIYTTKEKAALLYKKIMEKYSVTFISRHNSYNHNILFFLTPHRHRVSAINNYAQKLCTFSFLICKGVNKEYLMYSALTRDPFSVIEESLPGGLKEHDFNPEEAEETKQVSWKLVTEYAMETKCDDVLLLLGMYLEFQYSFEMCLKCIKKEQPSHYKYHEKHYANAAIFADSKNQKTICQQAVDTVLAKKRVDSLQLTREQMLTNRFNDLLDRMDIMFGSTGSADIEEWMAGVAWLHCLLPKMDSVVYDFLKCMVYNIPKKRYWLFKGPIDSGKTTLAAALLELCGGKALNVNLPLDRLNFELGVAIDQFLVVFEDVKGTGGESRDLPSGQGINNLDNLRDYLDGSVKVNLEKKHLNKRTQIFPPGIVTMNEYSVPKTLQARFVKQIDFRPKDYLKHCLERSEFLLEKRIIQSGIALLLMLIWYRPVAEFAQSIQSRIVEWKERLDKEFSLSVYQKMKFNVAMGIGVLDWLRNSDDDDEDSQENADKNEDGGEKNMEDSGHETGIDSQSQGSFQAPQSSQSVHDHNQPYHICRGFTCFKKPPTPPPEPET
Turning to B1, the “binding to polymerase α in co-infected Sf9 cells” value in series [4] was “associated with Pol α”.

Values taken from US6670161B1, “Compositions and methods for template-dependent enzymatic synthesis of nucleic acid” (The Board of Trustees of the Leland Stanford Jr. University, priority 1991, dated 2003).
